The values that follow come from article doi:10.1101/476960.

Read-outs that look alike come from different tables or passages of the source.

For data set [1], the target named is T1, Ago2 (Homo sapiens, UniProt Q9UKV8 1-859). The data set is described as follows: filter binding.
Data set [2] addresses T1, Ago2. Description: filter binding. This is another data set of the same source.
For data set [3], the target named is Ago2 D669A (Homo sapiens, UniProt Q9UKV8 1-859, D669A). Description: X-ray crystallography.
Data set [4] deals with T1, Ago2. The data set is described as follows: filter binding. This is another data set of the same source.

T1 sequence (Q9UKV8 whole entry): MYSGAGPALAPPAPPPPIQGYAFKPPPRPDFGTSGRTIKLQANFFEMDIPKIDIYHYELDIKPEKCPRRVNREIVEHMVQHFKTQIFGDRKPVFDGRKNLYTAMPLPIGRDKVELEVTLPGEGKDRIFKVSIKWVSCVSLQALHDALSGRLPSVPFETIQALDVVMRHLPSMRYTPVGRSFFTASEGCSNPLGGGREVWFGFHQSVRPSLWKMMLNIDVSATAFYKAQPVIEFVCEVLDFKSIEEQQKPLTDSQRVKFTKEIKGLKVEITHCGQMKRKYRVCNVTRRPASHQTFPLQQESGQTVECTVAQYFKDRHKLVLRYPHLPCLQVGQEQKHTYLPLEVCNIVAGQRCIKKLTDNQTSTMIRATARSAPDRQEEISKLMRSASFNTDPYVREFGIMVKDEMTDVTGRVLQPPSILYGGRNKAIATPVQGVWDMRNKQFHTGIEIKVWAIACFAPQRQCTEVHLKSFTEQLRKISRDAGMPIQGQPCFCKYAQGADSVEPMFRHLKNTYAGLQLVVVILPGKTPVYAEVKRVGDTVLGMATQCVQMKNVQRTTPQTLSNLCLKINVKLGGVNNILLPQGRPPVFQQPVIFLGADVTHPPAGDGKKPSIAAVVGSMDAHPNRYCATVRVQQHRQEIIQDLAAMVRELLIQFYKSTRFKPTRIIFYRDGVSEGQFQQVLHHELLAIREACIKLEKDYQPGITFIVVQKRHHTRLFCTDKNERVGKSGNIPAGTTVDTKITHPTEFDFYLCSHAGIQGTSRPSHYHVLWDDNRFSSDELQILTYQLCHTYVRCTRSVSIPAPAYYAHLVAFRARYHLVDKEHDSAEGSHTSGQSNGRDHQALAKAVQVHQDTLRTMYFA
Sequence of Ago2 D669A (Q9UKV8 whole entry D669A): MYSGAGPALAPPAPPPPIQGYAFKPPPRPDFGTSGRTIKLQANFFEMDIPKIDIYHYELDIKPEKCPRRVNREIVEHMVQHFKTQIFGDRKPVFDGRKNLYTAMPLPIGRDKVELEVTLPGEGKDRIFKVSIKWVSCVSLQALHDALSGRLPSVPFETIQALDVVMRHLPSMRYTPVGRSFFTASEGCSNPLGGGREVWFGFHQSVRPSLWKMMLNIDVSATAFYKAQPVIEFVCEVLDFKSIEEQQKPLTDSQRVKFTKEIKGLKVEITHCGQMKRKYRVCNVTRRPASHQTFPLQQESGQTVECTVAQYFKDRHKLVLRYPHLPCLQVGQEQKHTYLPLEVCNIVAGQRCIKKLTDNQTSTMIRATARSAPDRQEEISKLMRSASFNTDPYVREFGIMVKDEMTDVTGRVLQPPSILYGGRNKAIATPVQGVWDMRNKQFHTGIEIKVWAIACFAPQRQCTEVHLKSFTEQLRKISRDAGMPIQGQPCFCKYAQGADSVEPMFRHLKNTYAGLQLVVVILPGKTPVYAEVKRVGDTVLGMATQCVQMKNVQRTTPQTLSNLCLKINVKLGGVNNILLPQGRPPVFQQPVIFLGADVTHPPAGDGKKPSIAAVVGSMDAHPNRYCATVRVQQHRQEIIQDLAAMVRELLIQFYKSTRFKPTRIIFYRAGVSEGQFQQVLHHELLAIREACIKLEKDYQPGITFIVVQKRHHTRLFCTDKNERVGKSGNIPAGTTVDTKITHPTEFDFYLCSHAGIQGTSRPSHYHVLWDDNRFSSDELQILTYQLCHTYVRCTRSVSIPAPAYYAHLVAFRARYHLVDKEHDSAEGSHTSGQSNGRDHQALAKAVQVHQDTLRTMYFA

B1: strong-sup miR-122 / 15 nt bridge (mixed)
RNA 1: UGGAGUGUGACAGCGGCGAAAG
RNA 2: CCGCAAAAAAAAAAAAAAAACACUCCUAA
modifications: 5' phosphate on guide
Take B1: in data set [1], the binding signal was > 10 fold affinity vs seed-only N7.

B2: strong-sup miR-122 / 2 nt bridge (mixed)
RNA 1: UGGAGUGUGACAGCGGCGAAAG
RNA 2: CCGCAAACACUCCUAA
modifications: 5' phosphate on guide
As for B2, the binding signal in data set [1] was > 20 fold affinity vs seed-only N7.

B3: EV2 guide / g13-g14 target (mixed)
RNA 1: UGGAGUGUGACACCGGCGAAAG
RNA 2: GGCAAAACACUCCUAA
modifications: 5' phosphate on guide
Take B3: the binding signal in data set [2] was > 3.5 fold affinity vs seed-only N13.

B4: strong-sup miR-122 / 4 nt bridge (mixed)
RNA 1: UGGAGUGUGACAGCGGCGAAAG
RNA 2: CCGCAAAAACACUCCUAA
modifications: 5' phosphate on guide
Turning to B4, the binding signal in data set [1] was > 20 fold affinity vs seed-only N7.

B5: miR-122 21mer / 2-16 perfect target (mixed)
RNA 1: UGGAGUGUGACAAUGGUGUUU
RNA 2: CCAUUGUCACACUCCAAA
modifications: 5' phosphate on guide
Take B5: the binding result in data set [3] is on record as “binds”.

B6: weak-sup miR-122 / 4 nt bridge (mixed)
RNA 1: UGGAGUGUGACACUAUCGAAAG
RNA 2: AUAGAAAAACACUCCUAA
modifications: 5' phosphate on guide
Turning to B6, the binding signal in data set [4] was > 10 fold affinity vs seed-only N2.

B7: weak-sup miR-122 / 10 nt bridge (mixed)
RNA 1: UGGAGUGUGACACUAUCGAAAG
RNA 2: AUAGAAAAAAAAAAACACUCCUAA
modifications: 5' phosphate on guide
With B7, the binding signal in data set [4] is 1.9 fold affinity vs seed-only N2.

B8: strong-sup miR-122 / 1 nt bridge (mixed)
RNA 1: UGGAGUGUGACAGCGGCGAAAG
RNA 2: CCGCAACACUCCUAA
modifications: 5' phosphate on guide
With B8, the binding signal in data set [1] is > 10 fold affinity vs seed-only N7.
